From patent publication US20100273865A1 (VERENIGING VOOR CHRISTELIJK HOGER ONDERWIJS …, published 2010)

Molecular target: T1, CREB (Homo sapiens (Human), UniProt P16220 1-327)
T1 construct: also called CREB1
Assay: co-immunoprecipitation from HEK293 cells, Western blot

T1 sequence (P16220 other isoform, or with tags, fused parts or gaps): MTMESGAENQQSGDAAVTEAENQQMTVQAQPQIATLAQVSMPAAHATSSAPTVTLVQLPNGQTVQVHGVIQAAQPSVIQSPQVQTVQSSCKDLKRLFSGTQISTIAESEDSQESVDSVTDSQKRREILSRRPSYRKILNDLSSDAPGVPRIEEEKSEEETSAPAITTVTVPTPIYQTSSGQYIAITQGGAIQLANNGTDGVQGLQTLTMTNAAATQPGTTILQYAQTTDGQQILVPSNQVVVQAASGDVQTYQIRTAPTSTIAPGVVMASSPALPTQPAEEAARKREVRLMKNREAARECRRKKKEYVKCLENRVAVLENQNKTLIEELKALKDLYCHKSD

B1: Flag-tagged dominant-negative NFIL3 (other)
chain: MDYKDDDDKHMASMTGGQQMGRDPDLEQRAEELARENEELEKEAEELEQELAELENKLIALGEENATLKAELLSLKLKFGLISSTVYAQEIQKLSNSTAVYFQDYQTSKAAVSSYVDEHEPAMVAGSCISVIKHSPQSSLSDVSEVSSVEHTQESPAQGGCRSPENKFPVIKQEPVELESFARESREERGAYSASIYQSYMGSSFSTYSHSPPLLQVHGSTSNSPRTSEADEGVVGKSSDGEDEQQVPKGPIHSPVELQRVHATVVKVPEVNPSALPHKLRIKAKAMQVKVEALDSEFEGMQKLSSPADALAKRHFDLEKHGASGTAHSSLPPFSVQVTNIQDWSLRSEHWHHKELGGKTQGTFKTGVVEVKDSGYKVSEAENLYLKQGVANLSAEVVSLKRFIATQPISASDSR
notes: Expressed in HEK293 cells from modified pcDNA3.1; Species of the NFIL3 portion is inferred from the rat cDNA named in the same paragraph; also called DN-NFIL3; dominant-negative NFIL3 protein
  binding result: no binding
